B1: pJB53: pLEX5BA with a 714 bp PstI/HindIII fragment of viaA in antisense orientation; expresses antisense RNA (SEQ ID NO: 4) (nucleic acid)
antisense: CUGCAGGCUGAGGUGUUGCCCUUACAAAUGCAACAACGACAUGGAUUACAACACCCUCAUAAACAAAGGGCAAUCACCUGAUCUAAGCUCUUACCUAUGACAGUGAUAGGUUAUGCCUUUUACUCGACUUUUGCACUGACUGAAAAGGACAAAUUAAUGUUAAAAAAGAUACUUUUACUGGCUCUGCUUCCUGCAAUCGCCUUCGCAGAGGAACUUCCUGCUCCAGUAAAAGCGAUUGAAAAACAGGGCAUUACAAUCAUCAAAACAUUCGAUGCCCCCGGAGGAAUGAAAGGUUAUCUCGGAAAGUAUCAGGAUAUGGGCGUCACCAUCUACCUGACUCCAGAUGGUAAGCACGCUAUCUCUGGUUACAUGUACAACGAGAAAGGUGAAAACCUGAGUAACACACUUAUCGAAAAAGAAAUUUACGCACCAGCCGGACGCGAAAUGUGGCAACGGAUGGAACAAUCCCACUGGCUCCUCGACGGUAAAAAAGAUGCGCCGGUCAUUGUCUACGUCUUCGCCGAUCCGUUCUGCCCAUAUUGUAAACAGUUCUGGCAGCAGGCGCGCCCGUGGGUAGAUUCUGGCAAAGUGCAAUUAAGAACAUUGUUGGUUGGGGUUAUCAAGCCAGAAAGCCCGGCGACAGCAGCGGCAAUUCUUGCCUCCAAAGAUCCCGCAAAAACCUGGCAACAAUAUGAAGCCUCUGGUGGCAAGCUU
modifications: expressed from plasmid pLEX5BA; Escherichia coli viaA
B2: pJB59: pLEX5BA with a 451 bp EcoRI/BamHI fragment of orf1/ampG in antisense orientation; expresses antisense RNA (SEQ ID NO: 7) (nucleic acid)
antisense: GAAUUCGUGGAUGCUGGUGUCCUGAGACAUAUCAGCGAUGGUAUCGGUCAGCACACUGUUAACCGCAUCGGCGAUAUUUUUGUUGGAGGCCUGGAACGCACCUUCAACGUUGUAGCUGGCACGAUAGUUUUUGGUCAUUUUGUUGCCAUUCUGCGCGGUAGCGAUGAUGGCGAUAUCCGCUUUGGUCGCGAUGUUGUAGCGCACGUUGCCCUGGGACACGUCAGCAUACAGUUGGCUAACGAUGAUUUGCAGAUUAACCGGGCCAUUCGGACCAACCAUGUAACCACGCGCGGUCAUCUGUUUUUCCAGCACUUCUUGCAGCAGGAAACGCAGAUCGCGGGAGGCGGUCAGGGUAACGAUUUGAUUAUCGCGGGUGACUUUUGCCAGCGCCUGAUCGGUACGCUGAUCGGCACCAUUAAUGCUUACGGUGACGCCCAUCAGGCUUGGAUCC
modifications: expressed from plasmid pLEX5BA; Escherichia coli ampG

Key:
[1] = system: E. coli DH5α; assay: Colony formation on M9 agar with or without 1 mM IPTG (FIG. 6); assay type: cell-based; details: M9 agar containing 1 mM IPTG vs without IPTG
Protocol: FIG. 6 is a bar graph showing the effect of inducing lepB, ddlB, viaA or orf1 antisense RNA expression on colony formation in E. coli DH5α. Striped bars indicate colony forming units (CFUs) per ml of culture for strains grown on semi-solid media in the absence of the inducer IPTG. Solid bars indicate CFUs/ml for strains grown in the presence of IPTG.
Cell proliferation for each strain was measured by diluting overnight cultures 1:10^6 into M9 medium. After growth to an OD450 of 0.2, aliquots of each culture were plated on M9 agar without IPTG or M9 agar containing 1 mM IPTG. […] Colony formation by cells carrying pJB57 was inhibited more than 100 fold. The colony formation of strains carrying pJB59 was inhibited more than 1000 fold.

[2] = system: E. coli DH5α; assay: Growth curves (OD450) in liquid LB media with or without 1 mM IPTG (FIG. 7); assay type: cell-based
Protocol: FIG. 7 is a graph showing growth curves of E. coli DH5α containing pJB37, pJB57 and pJB59 in liquid media in the presence and absence of IPTG.
Inhibition of bacterial growth after IPTG induction. Growth curves were carried out by back diluting cultures 1:20 into fresh media with or without 1 mM IPTG and measuring the OD450 every 30 minutes (min). To study transcriptional induction in exponential phase, cultures were diluted 1:10^6 or as indicated. The viability (CFU/ml) was determined over time by plating aliquots of the culture on agar with or without IPTG.
Kinetics of inhibition during exponential growth by antisense RNA. The kinetics of antisense inhibition was examined for strains carrying pJB37, pJB53, pJB57 or pJB59. Overnight cultures of each strain were diluted 1:20 into LB media containing 1 mM IPTG or LB media without IPTG. The OD450 was then measured on the liquid cultures. […] After induction of antisense RNA expression, a few generations of cell division presumably are required in order to dilute endogenous gene product present at the initiation of induction.

[3] = system: E. coli DH5α; assay: Viability (CFUs/ml) over time after induction of antisense RNA expression (FIG. 8); assay type: cell-based
Protocol: FIG. 8 is a graph showing the viability of DH5α strains at various times after induction of antisense RNA expression. Strains contained the following plasmids: squares: pJB37; diamonds: pJB53; circles: pJB57; and triangles; pJB59.
Inhibition of viability by antisense RNA. The viability over time of the four strains expressing the antisense RNAs described above was also examined. Overnight cultures of each strain were diluted 1:100 into LB medium containing 1 mM IPTG. Aliquots of each culture were plated on LB agar containing ampicillin at intervals thereafter to determine CFUs/ml.

[4] = system: Salmonella typhimurium; assay: Growth of transformants plated on LB with or without 1 mM IPTG; assay type: cell-based
Protocol: In order to examine the effectiveness of the antisense RNAs in a related species, Salmonella typhimurium was transformed with pJB37 or pJB53. The ampicillin-resistant transformants were plated on LB with or without 1 mM IPTG.

[5] = system: E. coli DH5α; assay: Effect of different concentrations of inducer IPTG on viability (FIG. 9); assay type: cell-based
Protocol: FIG. 9 is a graph showing the effect of varying concentrations of inducer on the viability of DH5α containing pJB37 (panel A) or pJB53 (panel B).
Effect of different concentrations of transcriptional inducer. Experiments were carried out to determine the effect of different concentrations of the inducer IPTG on bacterial growth and viability with the two clones where antisense RNA is bacteriocidal. Overnight cultures were diluted 1:100 into LB media containing 0, 10, 100 500 or 1000 micro molar (μM) IPTG. At the time of induction and every 2 hours thereafter, aliquots were plated on LB/ampicillin agar to determine CFUs/ml.

[6] = system: JRG58201; assay: Growth and viability of ampG null strain after IPTG induction; assay type: cell-based, E. coli
Excerpt: Lethality of pJB59 antisense RNA requires inhibition of orf1. The polycistronic mRNA that encodes ampG in E. coli has an upstream ORF, termed orf1 herein: The antisense RNA made by pJB59 is complementary to orf1. In order to determine whether translational inhibition of orf1 or of ampG was the cause of the lethality of pJB59 antisense RNA, pJB59 was transformed into the ampG null strain, JRG58201. Jacobs, C., et al, EMBO J. 13:4684-4694 (1993). JRG58201 has a defect in the ampG gene but has no known defect in the orf1 gene.

Molecule | effect on cell growth or colony formation when induced with IPTG [1] | time at which cell mass began to decrease ([2]; LB, 1 mM IPTG) | cell lysis, microscopic examination ([2]; after induction of antisense RNA) | bacteriocidal or bacteriostatic [3] | reduction of viability ([3]; 6 hours after induction, 1 mM IPTG, LB) | growth after induction of the antisense RNA [4] | effect on colony forming ability ([5]; 10 μm IPTG) | anti-proliferative effect ([5]; 500 μm IPTG) | effect on the time of cell death of a 2 fold increase of IPTG ([5]; 1000 μm IPTG) | inhibition of colony formation [1] | time after induction until significant effect on the increase in cell mass (OD450) ([2]; LB, 1 mM IPTG) | time after which cell mass stopped increasing (did not decrease) ([2]; LB, 1 mM IPTG) | growth and viability after IPTG induction [6] | growth and viability when antisense RNA is expressed ([3]; 1 mM IPTG, LB)
B1 | unable to form colonies | about 4 hours | did not | bacteriocidal | about 3 logs | greatly inhibited | minimal effect | near maximal | little effect |  |  |  |  | 
B2 |  |  |  | bacteriostatic |  |  |  |  |  | more than 1000 fold | about 3 hours | about 3 hours | inhibited | growth is inhibited but viability is not reduced
